Measured values: patent publication US20230212305A1 (published 2023)

T1: human ABCG2 (human, UniProt Q9UNQ0 1-655)
T1 construct: also called hG2; KPG2
T1 sequence: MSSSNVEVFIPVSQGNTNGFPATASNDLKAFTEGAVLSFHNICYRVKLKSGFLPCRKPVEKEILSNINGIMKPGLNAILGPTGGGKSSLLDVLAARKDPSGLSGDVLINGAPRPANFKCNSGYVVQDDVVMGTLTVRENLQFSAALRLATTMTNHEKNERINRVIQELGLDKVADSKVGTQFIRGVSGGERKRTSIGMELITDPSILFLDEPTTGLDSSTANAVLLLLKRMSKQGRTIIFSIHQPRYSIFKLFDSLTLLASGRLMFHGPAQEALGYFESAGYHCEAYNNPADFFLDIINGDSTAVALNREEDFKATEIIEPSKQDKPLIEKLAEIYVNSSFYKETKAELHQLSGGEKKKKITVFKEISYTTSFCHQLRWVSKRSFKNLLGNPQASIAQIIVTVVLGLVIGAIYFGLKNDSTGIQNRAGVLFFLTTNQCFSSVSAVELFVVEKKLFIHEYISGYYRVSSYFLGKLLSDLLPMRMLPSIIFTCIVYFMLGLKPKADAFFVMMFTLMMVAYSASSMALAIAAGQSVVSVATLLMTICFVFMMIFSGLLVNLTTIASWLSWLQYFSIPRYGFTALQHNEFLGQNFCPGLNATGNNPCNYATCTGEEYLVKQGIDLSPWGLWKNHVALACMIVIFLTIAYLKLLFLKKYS

T2: cynomolgus ABCG2 (Macaca fascicularis) (Macaca fascicularis (cynomolgus), UniProt Q5MB13 1-654 (rhesus entry))
T2 construct: also called cABCG2
T2 sequence: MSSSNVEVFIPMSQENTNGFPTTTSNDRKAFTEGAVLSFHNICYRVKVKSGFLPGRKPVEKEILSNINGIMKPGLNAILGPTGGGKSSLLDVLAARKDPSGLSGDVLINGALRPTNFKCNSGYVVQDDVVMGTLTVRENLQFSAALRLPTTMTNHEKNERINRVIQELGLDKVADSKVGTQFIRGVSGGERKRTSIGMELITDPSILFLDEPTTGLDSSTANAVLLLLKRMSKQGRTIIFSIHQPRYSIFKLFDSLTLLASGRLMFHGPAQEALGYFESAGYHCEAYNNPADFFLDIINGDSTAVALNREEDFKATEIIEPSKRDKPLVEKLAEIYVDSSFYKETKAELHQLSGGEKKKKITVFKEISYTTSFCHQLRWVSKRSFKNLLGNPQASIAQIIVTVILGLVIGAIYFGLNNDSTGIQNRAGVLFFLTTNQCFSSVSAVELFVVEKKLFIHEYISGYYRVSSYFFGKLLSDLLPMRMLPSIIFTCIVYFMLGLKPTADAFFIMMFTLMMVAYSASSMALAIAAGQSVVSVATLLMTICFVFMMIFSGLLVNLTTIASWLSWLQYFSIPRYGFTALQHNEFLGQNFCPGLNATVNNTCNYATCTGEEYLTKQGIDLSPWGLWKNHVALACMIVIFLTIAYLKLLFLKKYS


Key:
[1] = target: T1, human ABCG2; assay: flow cytometry titration on 293T_ABCG2_OX cells; column Affinity for human ABCG2 (nM)
Protocol: (§1) Cell Binding Assays. Antibody binding to cells was evaluated by flow cytometry. […] After incubating cells on ice for 30 min, cells were washed twice with flow cytometry buffer. Bound antibody was detected with PE-labeled F(ab′)₂ fragment goat anti-human IgG (Jackson ImmunoResearch) and evaluated on an Attune NxT flow cytometer.

[2] = target: T2, cynomolgus ABCG2 (Macaca fascicularis); assay: flow cytometry on cells expressing cynomolgus ABCG2
Protocol: as §1

[3] = target: T2, cynomolgus ABCG2 (Macaca fascicularis); assay: flow cytometry on cells expressing cynomolgus ABCG2; paragraph 395: non-significant binding = -
Protocol: as §1

Kd [1] [nM]	binding result [2]	binding result [3]	Binder
7.9	binds	–	G2.257 mouse (antibody, human IgG1, V domains shown, Variable regions cloned onto human IgG1 constant heavy chain and human kappa constant light chain) VH: EVQLQQSGPELVKPGASLKISCKTFGYSFTGYYMHWVKQSPEKSLEWIGKIVPSTGGTTYNQKFKAKATLTVDKSSFTAYMQLKSLTTEDSAVYYCAREKVYGYDVYYFDYWGQGTTLTVSS VL: DIQMTQTPSSLSASLGDRVTITCSTSQGVRSYLNWYQQKPDGSVKLLIYYTSSLHSGVPSRFSGSGSGTDYSLTISNLEPEDIATYYCQQYSKLPYTFGGGTKLELK
88	binds	–	G2.394 rat (antibody, human IgG1, V domains shown, Variable regions cloned onto human IgG1 constant heavy chain and human kappa constant light chain) VH: EVQLKESGPGLVQPSQTLSLTCTVSGFSLTDYTITWVRQPPGKGLEWIAATSVGGATHYNSPLKSRLSISGDTSKSQVFLKMNSLRTEDTAMYFCVRSGYYSTYMNWGRGTMVTVSS VL: DVVMTQTPPTFSATIGQSVSISCRSSQSLLHSSGNTFLSWLLQRPGQPPQLLIYLVSRLEFGVPNRFSGSGSGTDFTLKISGVEAEDLGVYYCVQSTHVMNTFGAGTKLEIK
40	binds	–	G2.343 rat (antibody, human IgG1, V domains shown, Variable regions cloned onto human IgG1 constant heavy chain and human kappa constant light chain) VH: SVQLKESGPGLVQPSQTLSLTCTVSGFSLTSNGVSWVRQPPGKGLEWIAAISSGGSTYYNSVLKSRLSISRDTSKSQVFLKMNSLQTEDTAIYFCTRDTYYGYNQIPFVYWGQGTLVTVSS VL: DVVLAQTPPTLSATIGQSVSISCRSSQSLLHSSGNTYLNWLLQRPGQPPQLLIYLVSRLESRVPNRFSGSGSGTDFTLKISGVEAEDLGVYYCVQSTHAPRTFGGGTKLELK
56	binds	–	G2.420 rat (antibody, human IgG1, V domains shown, Variable regions cloned onto human IgG1 constant heavy chain and human kappa constant light chain; also called G.420; KNJY-G2-420) VH: SVQLMESGPGLVQPSQTLSLTCTVSGFSLNSYNVNWVRQPPGKGLEWIAAISSGGSTYYNSVLKSRLSITRDTSKSQVFLKMNSLQTEDTAMYFCARSGYYSSYMNWGQGVMVTVSS VL: DVVMTQTPPTLSATIGQSVSISCRSSQSLLHSTGNTYLNWLLQRPGQPPQLLIYLVSRLEYGVPNRFSGSGSGTDFTLKISGVEAEDLGVYYCAQSTHALNTFGAGTKLELK
168	binds	–	G2.346 rat (antibody, human IgG1, V domains shown, Variable regions cloned onto human IgG1 constant heavy chain and human kappa constant light chain) VH: SVQWKESGPGLVQPSQTLSLTCTVSGFSLTSNGVSWVRQPPGKGLEWIAAISSGGSTYYNSGLKSRLSISRDTSKSQVFLKMNSLQTEDTAIYFCTRAGYYGYNPIWFTYWGQGTLVTVSS VL: DVVMTQTPPTLSATIGQSVSISCRSSQSLLHGSGNTYLNWLLQRPGQPPQILIYLVSRLESRVPKRFSGSGSGTDFTLKISGVEADDLGVYYCVQSTHAPFTFGSGTKLELK
80	binds	–	G2.348 rat (antibody, human IgG1, V domains shown, Variable regions cloned onto human IgG1 constant heavy chain and human kappa constant light chain) VH: EVQLVESGPGLMQPSQTLSLTCTVSGFSLTSNGVSWVRQPPGKGLEWIATISSGGNTNYNSALKSRLSISRDTSKSQVFLKMNSLQTEDTAIYFCTRVGYYGYNPIWFAYWGQGTLVTVSS VL: DVVMTQTPPTLSATIGHSVSISCRSSQSLFHSSGNTYLSWFLQRPGQPPQLLIYLVSRLESRVPNRFSGSGSGTDFTLKISVLEAEDLGVYYCVQTTHAPFTFGSGTKLEIK
17	–	no binding	G2.173 mouse (antibody, human IgG1, V domains shown, Variable regions cloned onto human IgG1 constant heavy chain and human kappa constant light chain) VH: QVQLQQSGADLVRPGASVKLSCTASGFNIKDDYVHWVKQRPEQGLEWIGRIDPANGNTRYAPKFRGKATMTADTSSNTAYLQLSSLTSADTAVYYCSPPLWVGGFAYWGQGTLVTVSS VL: DVVMTQTPLSLPVSLGDQASISCRSSQSLVHSDVNTYLHWYLQRPGQSPKLLIYKVSNRFSGVPDRFSGSGSGTDFTLKISRVESEDLGIYFCSQTTHVPYTFGGGTKLEIK
46	–	no binding	G2.173 Humanized 1 (antibody, human IgG1, V domains shown) VH: EVQLVQSGAEVKKPGASVKVSCKASGFNIKDDYVHWVRQAPGQGLEWIGRIDPANGNTRYAPKFRGRATMTADTSISTAYMELSRLRSDDTAVYYCSPPLWVGGFAYWGQGTLVTVSS VL: DVVMTQSPLSLPVTLGQPASISCRSSQSLVHSDVNTYLHWYQQRPGQSPRLLIYKVSNRFSGVPDRFSGSGSGTDFTLKISRVEAEDVGVYFCSQTTHVPYTFGGGTKLEIK
273	–	no binding	G2.173 Humanized 2 (antibody, human IgG1, V domains shown) VH: EVQLVQSGAEVKKPGASVKVSCKASGFNIKDDYVHWVRQAPGQGLEWIGRIDPAQGNTRYAPKFRGRATMTADTSISTAYMELSRLRSDDTAVYYCSPPLWVGGFAYWGQGTLVTVSS VL: DVVMTQSPLSLPVTLGQPASISCRSSQSLVHSDVNTYLHWYQQRPGQSPRLLIYKVSNRFSGVPDRFSGSGSGTDFTLKISRVEAEDVGVYFCSQTTHVPYTFGGGTKLEIK
44	–	no binding	G2.173 Humanized 3 (antibody, human IgG1, V domains shown) VH: EVQLVQSGAEVKKPGASVKVSCKASGFNIKDDYVHWVRQAPGQGLEWIGRIDPASGNTRYAPKFRGRATMTADTSISTAYMELSRLRSDDTAVYYCSPPLWVGGFAYWGQGTLVTVSS VL: DVVMTQSPLSLPVTLGQPASISCRSSQSLVHSDVNTYLHWYQQRPGQSPRLLIYKVSNRFSGVPDRFSGSGSGTDFTLKISRVEAEDVGVYFCSQTTHVPYTFGGGTKLEIK
59	binds	–	G2.302 Humanized (antibody, human IgG1, V domains shown) VH: EIQLVQSGAEVKKPGASVKVSCKASGYTFTDYYINWVRQAPGQRLEWIGWIYPGNVNVKYNEKFKGRATLTVDTSASTGYMELSSLRSEDTAVYFCARSIGLRYFDNWGQGTLVTVSS VL: EKVLTQSPATLSLSPGERATLSCRASSSVHYMYWHQQKPGQSPRLWIYYTSNLAPGVPARFSGSGSGNDYTLTISSLEPEDFAVYYCQQFTTSTWTFGGGTKLEIK
25	binds	–	G2.302 mouse (antibody, human IgG1, V domains shown, Variable regions cloned onto human IgG1 constant heavy chain and human kappa constant light chain; also called G.302) VH: QIQLQQSGPELVRPGASVKISCKASGYTFTDYYINWVKQRPGQGLEWIGWIYPGNVNVKYNEKFKGKATLTVDTSSSTGYMQLRSLTSEDSAVYFCARSIGLRYFDNWGQGTTLTVSS VL: EKVLTQSPAIMSASLGEKVTMSCRASSSVHYMYWHQQKSDASPRLWIYYTSNLAPGVPARFSGSGSGNFYSLTISSVEDEDGATYYCQQFTTSTWTFGGGTKLEIK
179	–	no binding	G2.65 mouse (antibody, human IgG1, V domains shown, Variable regions cloned onto human IgG1 constant heavy chain and human kappa constant light chain; also called KNJY-G2-65) VH: QGQMHQSGAELVKPGASVKLSCKTSGFTFNSGYISWLKQKPRQSLEWIAWIYAGTGISNFNQKFTGKAQLTVDTSSSTAYMQLSSLTSADSAIYFCASGARKTLDFWGQGTSVTVSS VL: DIQMTQSSSYLSVSVGGRVTITCKASDQINYWLAWYQQKPGNAPRLLISGATSLETGVPSRFSGSGSGKDYTLSITSFQTEDVATYYCQQYWTTPYTFGGGTKVEIK
–	binds	–	G2.630 rat (antibody, human IgG1, V domains shown, Variable regions cloned onto human IgG1 constant heavy chain and human kappa constant light chain) VH: EVQLVESGPGLVKPSQSLSLTCSVTGYTITSGYDWTWIRKFPGNKMEWMGYISYSGFTNYNPSLRSRISITRDTSKNQFFLQLNSVTTEDTATYYCTRTRGYNPFAYWGQGTLVTVSS VL: DVVMTQSPSLLSASVGDRVTLSCKAGRNINNYLAWYQQKLGKAPKLLIYNTNSLQTGIPSRFSGSGSGTDFTLTISSLQPEDVATYFCQQYNSWTTFGSGTKLEIK
–	binds	–	G2.318 rat (antibody, human IgG1, V domains shown, Variable regions cloned onto human IgG1 constant heavy chain and human kappa constant light chain) VH: EVKLLESGPGLVKPSQSLSLTCSVTGYTITSGYDWSWIRKFPGNKMEWMGYISYSGWTNYNPSLRSRISISRDTSKNQFFLQLNSVTTEDTATYYCARVRGYNPFAYWGQGTLVTVSS VL: DIVMTQSPSLLSASVGDRVTLSCKAGQNINNYLAWYQQKLGEAPKLLIYNANSLQTGIPSRFSGSGSGTDFTLTISSLQPEDVATYFCQQYNSWTTFGSGTKLEIK
–	binds	–	G2.320 rat (antibody, human IgG1, V domains shown, Variable regions cloned onto human IgG1 constant heavy chain and human kappa constant light chain) VH: EVQLEESGPGLVKPSQSLSLTCSVTGYTITSGYDWTWIRKFPGNKMEWMGYISYSGFTNYNPSLRSRISITRDTSKNQFFLQLNSVTTEDTATYYCTRTRGYNPFAYWGQGASVSSAS VL: DIVMTQSPSLLSASVGDRVTLSCKAGRNINNYLAWYQQKLGKAPKLLIYNTNSLQTGIPSRFSGSGSGTDFTLTISSLQPEDVATYFCQQYNSWTTFGSGTKLEIK
